Results as given in patent US6087115A, “Methods of identifying negative antagonists for G protein coupled receptors” (Cornell Research Foundation, Inc., priority 1997, dated 2000).

How the values were obtained:
KSHV GPCR = biological target: T1, KSHV GPCR (Human herpesvirus 8 type P, UniProt Q98146); assay: Competition binding of 125I-IL-8 by unlabelled chemokines to COS-1 cells transfected with pcKSHV GPCR; details: for binding to KSHV GPCR (in words): competition analysis with 125I-IL-8, FIGS. 2 and 3; for Ki: competition of human recombinant 125I-IL-8, COS-1 cells transfected with pcKSHV GPCR, 4° C., 2 hrs, read-out: Kd or Ki
T1 construct: expressed in transfected cells; host or cells: COS-1
T1 sequence (Q98146 1-342): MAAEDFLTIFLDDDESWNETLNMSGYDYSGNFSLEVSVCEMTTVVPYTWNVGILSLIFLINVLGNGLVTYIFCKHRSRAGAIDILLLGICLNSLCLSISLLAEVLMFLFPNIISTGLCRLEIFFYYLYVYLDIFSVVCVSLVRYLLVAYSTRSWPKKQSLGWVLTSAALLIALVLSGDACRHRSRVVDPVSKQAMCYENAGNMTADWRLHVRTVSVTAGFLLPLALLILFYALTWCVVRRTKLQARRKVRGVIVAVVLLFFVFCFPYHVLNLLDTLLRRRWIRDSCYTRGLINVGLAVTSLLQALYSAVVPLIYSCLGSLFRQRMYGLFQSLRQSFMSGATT
Method: Data represent the mean of triplicate determinations in a representative of two experiments;
Competition binding. The coding sequence of KSHV GPCR was cleaved from its original subcloning plasmid (Cesarman et al. 1996) by digestion with NcoI and inserted into the EcoRV site of the eukaryotic expression vector pcDNA3.1(+) (Invitrogen), producing the pcKSHV GPCR used for expression in mammalian cells. COS-1 cells (American Type Culture Collection) were grown in 100 mm petri dishes in Dulbecco's modified Eagle's medium (DMEM; GIBCO-BRL) with 5% Nu-Serum (Collaborative Research) in a humidified incubator in an atmosphere of 5% CO2 at 37° C. […] Approximately 100,000 cells per well (in 12-well plates) were washed with Hank's balanced salt solution (HBSS) containing 25 mM HEPES, pH 7.4 (GIBCO-BRL). […] The binding buffer contained bovine serum albumin (BSA; 1 mg/ml), bacitracin (1 mg/ml), and phenyl methyl sulphonyl fluoride (PMSF; 1 mM). Assays were terminated by aspirating the binding buffer, washing three times with chilled HBSS and solubilizing the cells with 0.4 N NaOH. An aliquot of this solution was counted in a gamma counter and the data expressed as percent of maximum bound. Binding and dose-response curves were analyzed using Prism software (GraphPad, Inc.).

[1] = tested on: human IL-8 receptors (type A or B); assay: Inositol phosphate accumulation in COS-1 cells transfected with human IL-8 receptor plasmids with or without Ga16/Ga15; format: cell-based; details: COS cells expressing IL-8 receptors without cotransfected Ga16 or Ga15, absence or presence of IL-8
[2] = biological target: human IL-8 receptor types A or B; details: values previously reported (Holmes et al. 1991; Murphy and Tiffany 1991); cited from earlier work

## MCP-1: chemokine of the C-C family
KSHV GPCR
  binding to KSHV GPCR (in words): do not

## MGSA: C-X-C chemokine
KSHV GPCR
  binding to KSHV GPCR (in words): also bind to KSHV GPCR
  Ki: 270 nM

## PF-4: C-X-C chemokine
KSHV GPCR
  binding to KSHV GPCR (in words): also bind to KSHV GPCR
  Ki: 150 nM

## IL-8: member of the family of C-X-C chemokines; used as radioligand and unlabelled competitor
[1]
  accumulation of IPs: little measurable accumulation
[2]
  Kd: 0.8 to 1 nM

## RANTES: chemokine of the C-C family
KSHV GPCR
  binding to KSHV GPCR (in words): bind to KSHV GPCR
  Ki: 520 nM

B1: NAP-2: C-X-C chemokine (protein, UniProt P02775 59-128, looked up)
Neutrophil-activating peptide …: AELRCMCIKTTSGIHPKNIQSLEVIGKGTHCNQVEVIATLKDGRKICLDPDAPRIKKIVQKKLAGDESAD
modifications: Neutrophil-activating peptide 2
notes: C-X-C chemokine
KSHV GPCR
  binding to KSHV GPCR (in words): also bind to KSHV GPCR
  Ki: 23 nM

B2: MIP-1b: chemokine of the C-C family (protein, UniProt P13236 24-92, looked up)
C-C motif chemokine 4: APMGSDPPTACCFSYTARKLPRNFVVDYYETSSLCSQPAVVFQTKRSKQVCADPSESWVQEYVYDLELN
KSHV GPCR
  binding to KSHV GPCR (in words): do not

B3: I-309: chemokine of the C-C family (protein, UniProt P22362 24-96, looked up)
C-C motif chemokine 1: KSMQVPFSRCCFSFAEQEIPLRAILCYRNTSSICSNEGLIFKLKRGKEACALDTVGWVQRHRKMLRHCPSKRK
KSHV GPCR
  binding to KSHV GPCR (in words): bind to KSHV GPCR
  Ki: 110 nM
